Molecular target: human glyceraldehyde 3-phosphate dehydrogenase (GAPDH) (human) (UniProt P04406)
Assay: cryo-EM structure

human glyceraldehyde 3-phosphate dehydrogenase (GAPDH), P04406 1-335 (enzyme; other documents disagree on this pair), sequence (P04406 whole entry): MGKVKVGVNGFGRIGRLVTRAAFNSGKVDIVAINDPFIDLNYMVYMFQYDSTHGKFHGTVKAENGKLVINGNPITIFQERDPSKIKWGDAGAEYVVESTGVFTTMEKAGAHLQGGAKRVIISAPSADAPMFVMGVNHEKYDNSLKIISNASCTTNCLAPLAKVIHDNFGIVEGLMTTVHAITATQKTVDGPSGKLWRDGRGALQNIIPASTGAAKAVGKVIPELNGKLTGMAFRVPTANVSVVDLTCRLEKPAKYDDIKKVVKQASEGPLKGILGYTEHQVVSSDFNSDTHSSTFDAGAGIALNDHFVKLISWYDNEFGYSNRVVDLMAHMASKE

stoichiometry N: 4
Substance: human glyceraldehyde 3-phosphate dehydrogenase (GAPDH), P04406 1-335 (enzyme; other documents disagree on this pair)
